From paper PMC5035592

Columns and labels:
[1] = target: platelet glycoprotein Ib alpha (UniProt P07359); assay: VWF:GPIb binding assay
[2] = target: equine collagen (Horm), a mixture of 95 % collagen type I and 5 % type III (equine); assay: VWF collagen binding assay

| ratio of VWF:GPIbα binding to VWF:Ag [1] | VWF:GPIbα binding (in relation to rwtVWF) [1] | ratio of VWF:GPIbα binding to VWF:Ag in medium (in relation to rwtVWF) [1] | ratio of VWF:CB to VWF:Ag in medium (in relation to rwtVWF) [2] | Substance |
| --- | --- | --- | --- | --- |
| 1.06 | – | – | – | plasma von Willebrand factor of a normal person (from UniProt P04275-1 764-2813) (natural protein) |
| – | 1 | 1 | 1 | recombinant wild type von Willebrand factor (from UniProt P04275-1 764-2813) (natural protein) |
